Laboratory results reported in US20140155582A1 (Astellas, published 2014).

B1: 1-15(N52D-A)-Fab′ conjugated to 5 kDa PEG (Fab, V domains shown)
VH: QVQLQQWGAGLLKPSETLSLTCAVYGGSFSGYYWSWVRQPPGKGLEWIGEIDHSGSTNNNPSLKSRVTISVGTSKNQFSLKLSSVTAADTAVYYCSRDGGPESGMGAFDIWGQGTMVTVSS
VL: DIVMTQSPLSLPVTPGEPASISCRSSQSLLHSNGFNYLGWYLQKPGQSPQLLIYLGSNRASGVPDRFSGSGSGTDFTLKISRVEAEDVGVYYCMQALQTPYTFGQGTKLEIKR
modifications: 5 kDa PEG conjugated by a procedure similar to Example 13 (hinge region Cys)
B2: 1-15(N52D-A)-Fab′ conjugated to 10 kDa PEG (Fab, V domains shown)
VH: QVQLQQWGAGLLKPSETLSLTCAVYGGSFSGYYWSWVRQPPGKGLEWIGEIDHSGSTNNNPSLKSRVTISVGTSKNQFSLKLSSVTAADTAVYYCSRDGGPESGMGAFDIWGQGTMVTVSS
VL: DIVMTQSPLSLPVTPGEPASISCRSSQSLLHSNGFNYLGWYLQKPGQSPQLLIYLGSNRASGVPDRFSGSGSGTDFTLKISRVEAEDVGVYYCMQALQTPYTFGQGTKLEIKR
modifications: 10 kDa PEG conjugated by a procedure similar to Example 13 (hinge region Cys)
B3: PEGylated 1-15(N52D)-Fab′ (Fab, V domains shown)
VH: QVQLQQWGAGLLKPSETLSLTCAVYGGSFSGYYWSWVRQPPGKGLEWIGEIDHSGSTNNNPSLKSRVTISVGTSKNQFSLKLSSVTAADTAVYYCSRDGGPESGMGAFDIWGQGTMVTVSS
VL: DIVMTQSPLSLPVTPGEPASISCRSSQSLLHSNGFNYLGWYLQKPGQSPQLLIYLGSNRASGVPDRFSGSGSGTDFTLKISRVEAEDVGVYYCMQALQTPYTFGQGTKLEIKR
modifications: 40 kDa PEG (maleimide, SUNBRIGHT GL2-400MA) on Cys at position 230 of SEQ ID NO:10 (C226 based on EU index)
B4: tanezumab (antibody, V domains shown)
VH: QVQLQESGPGLVKPSETLSLTCTVSGFSLIGYDLNWIRQPPGKGLEWIGIIWGDGTTDYNSAVKSRVTISKDTSKNQFSLKLSSVTAADTAVYYCARGGYWYATSYYFDYWGQGTLVTVSS
VL: DIQMTQSPSSLSASVGDRVTITCRASQSISNNLNWYQQKPGKAPKLLIYYTSRFHSGVPSRFSGSGSGTDFTFTISSLQPEDIATYYCQQEHTLPYTFGQGTKLEIKR

Tests used:
[1] = target: human βNGF (R&D Systems, Inc.) (human, UniProt P01138 122-241); assay: cell-based or functional assay
Sequence of human βNGF (R&D Systems, Inc.) (P01138 122-241 limits assumed): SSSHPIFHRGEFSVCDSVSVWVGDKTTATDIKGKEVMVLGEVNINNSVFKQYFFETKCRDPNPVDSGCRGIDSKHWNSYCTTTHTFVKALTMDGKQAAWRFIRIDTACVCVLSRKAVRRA

[2] = target: mouse βNGF (R&D Systems, Inc.) (mouse, UniProt P01139 122-241); assay: cell-based or functional assay
Sequence of mouse βNGF (R&D Systems, Inc.) (P01139 122-241 limits assumed): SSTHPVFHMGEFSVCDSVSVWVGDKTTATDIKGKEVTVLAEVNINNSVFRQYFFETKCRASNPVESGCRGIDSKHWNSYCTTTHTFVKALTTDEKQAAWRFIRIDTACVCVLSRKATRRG

Binder | IC50, method of Example 6 at a final NGF concentration of 50 ng/ml [1] | IC50, method of Example 6 (Ca2+, HEK293-human trkA) [2] | IC50, method of Example 6 (Ca2+, HEK293-human trkA) [1]
B1 | 0.03 µg/mL | – | –
B2 | 0.028 µg/mL | – | –
B3 | – | 0.069 µg/mL | –
B4 | – | 0.23 µg/mL | 0.17 µg/mL
